Molecular target: rabbit skeletal muscle F-actin (rabbit), P68135
Test: nanosecond emission anisotropy
Conditions: remark: other sources report otherwise

rotational correlation time: > 400 ns
B1: IAENS-labeled Dictyostelium severin, P10733 1-362 (natural protein)
chain: MIKNRKLDITSTNVAGIGTDLDKKCRLDAASTEAQWKGVGQAPGLKIWRIENFKVVPVPESSYGKFYDGDSYIILHTFKEGNSLKHDIHFFLGTFTTQDEAGTAAYKTVELDDFLGGAPIQYRQCQSYESPSFLSLFPKYFILSGGVESGFNHVKPTEYKPRLLHISGDKNAKVAEVPLATSSLNSGDCFLLDAGLTIYQFNGSKSSPQEKNKAAEVARAIDAERKGLPKVEVFCETDSDIPAEFWKLLGGKGAIAAKHETAPTKSEKVLYKLSDASGSLKFSEVSRGKINKSSLKSEDVFIIDLGNEIYTWIGSKSSPNEKKTAFSHATQYLVNNKRCEYTPIVRVLENGTNQSFETLLSA
modifications: here or on the partner: one to two IAENS molecules attached to the protein (residues not stated)

Source: paper PMC2112927
